These results are taken from patent publication US20160145654A1.

Test [1] concerns the target labeled mouse IgG2b monoclonal antibody conjugated to phycoerythrin. As to the kind of experiment: FACS of particles with 10 µg/mL PE labeled mouse IgG2b mAb.
For test [2] the target is unchanged. As to the kind of experiment: FACS of particles with 10 µg/ml PE labeled mouse IgG2b mAb.
For test [3], the target named is human IgG from pooled human serum (Sigma-Aldrich). As to the kind of experiment: ELISA of heated granules, human serum, anti-IgG-HRP. In general terms: ELISA stands for enzyme-linked immunosorbent assay.
The target is the same in test [4]. The test is described as follows: ELISA, granules coated on wells, pooled human serum, polyclonal anti-IgG-HRP, OPD.

The substance “ZZ domain-PHA synthase fusion without signal peptide, on PHA granules (from UniProt P23608 1-589)” came in with a fold increased binding affinity against particles from pBHR69-ZZ(-)phaC (about 150 nm) in test [1] of 10 fold. This substance also displayed a fold more IgG bound per particle against particles from pBHR69-ZZ(-)phaC in test [2] greater than 10 fold. The same substance yielded a binding capacity after heating for 15 min at 60° C. in test [3] of 60%. Also, in test [4], the fold increase in absorption at 490 nm against wild type PHA granules was greater than 2 fold.
